Where no end group is shown, it is not given here. The star is where a group is joined. FITC = O=C1OC2(c3ccc(O)cc3Oc3cc(O)ccc32)c2ccc(NC(=S)*)cc21
Tests used:
[1] = target: biotinylated DCAF12 (Δ1–78) (human, UniProt Q5T6F0 79-453, biotin); assay: SPR
DDB1–DCAF12–DDA1 complex = DDB1–DCAF12–DDA1 complex (human | , UniProt Q5T6F0 1-453; Q5T6F0 1-453; Q9BW61 1-102); assay: FP

Binder	koff [1]	Kd (DDB1–DCAF12–DDA1 complex)
IRKPGESEE [unlabeled CCT5 peptide]	0.017 s⁻¹	–
LHEWVLREGEE [unlabeled MAGEA3 peptide]	0.06 s⁻¹	–
{FITC}-LHEWVLREGEE [FITC-labeled MAGEA3 peptide]	–	60 nM
{FITC}-IRKPGESEE [FITC-labeled CCT5 peptide]	–	130 nM

From paper PMC11044963 (2024)
